The data set has as its target PARP1 (Homo sapiens, UniProt P09874 1-1014). In words: BLI; no competitor; kon 6.6 ± 0.34 (10^5 M-1 s-1), koff 1.28 ± 0.04 (printed as 10^2; 10^-2 s-1 implied); BLI: 1x PBS pH 7.4, 25 °C, SAX biosensors, biotinylated oligo loaded at 2 uM, PARP1 2.5-162 nM. Pull-down: 25 mM Tris-HCl pH 7.4, 150 mM NaCl, 1 mM EDTA, 1% NP-40, 5% glycerol, 0.1 mM DTT, room temperature. The settings on record: protein: recombinant; label: 5'-biotin; bi-modular G4 with parallel chain stacking. On the technique in general: In BLI a coated tip is dipped into the sample, and binding shifts an interference pattern.

Chain of PARP1 (P09874 whole entry): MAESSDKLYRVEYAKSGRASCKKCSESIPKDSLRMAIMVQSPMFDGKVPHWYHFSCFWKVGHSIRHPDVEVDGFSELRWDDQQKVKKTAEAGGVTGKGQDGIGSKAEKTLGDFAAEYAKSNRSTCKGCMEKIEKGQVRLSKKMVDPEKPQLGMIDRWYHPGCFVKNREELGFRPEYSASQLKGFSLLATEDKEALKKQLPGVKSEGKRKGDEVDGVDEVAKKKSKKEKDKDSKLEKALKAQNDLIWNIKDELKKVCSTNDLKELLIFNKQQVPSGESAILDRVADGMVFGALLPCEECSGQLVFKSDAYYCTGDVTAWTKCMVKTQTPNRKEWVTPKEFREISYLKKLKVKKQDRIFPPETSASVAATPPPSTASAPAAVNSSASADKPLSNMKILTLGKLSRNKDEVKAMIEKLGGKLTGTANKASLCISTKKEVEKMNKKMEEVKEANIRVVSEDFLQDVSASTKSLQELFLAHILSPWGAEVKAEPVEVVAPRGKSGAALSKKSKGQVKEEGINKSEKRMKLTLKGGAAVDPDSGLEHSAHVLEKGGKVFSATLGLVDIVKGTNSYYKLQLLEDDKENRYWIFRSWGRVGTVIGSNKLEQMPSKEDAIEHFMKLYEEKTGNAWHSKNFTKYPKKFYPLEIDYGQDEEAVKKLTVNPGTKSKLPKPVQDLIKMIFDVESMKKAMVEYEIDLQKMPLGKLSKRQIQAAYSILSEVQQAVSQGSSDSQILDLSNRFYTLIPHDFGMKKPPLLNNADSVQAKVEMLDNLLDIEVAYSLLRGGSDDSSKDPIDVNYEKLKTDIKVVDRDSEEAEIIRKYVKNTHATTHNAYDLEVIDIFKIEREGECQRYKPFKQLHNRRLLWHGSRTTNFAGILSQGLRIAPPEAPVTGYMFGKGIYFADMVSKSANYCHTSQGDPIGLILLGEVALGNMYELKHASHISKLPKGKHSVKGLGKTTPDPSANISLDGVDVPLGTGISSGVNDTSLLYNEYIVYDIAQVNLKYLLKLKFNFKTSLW

B1: bi-(AID-1-T) (structured_DNA)
DNA: GGGTGGGTGGGTGGGTTTGGGTGGGTGGGTGGG
As for B1, the equilibrium dissociation constant (Kd) stood at 19.4 ± 0.7 nM.

For orientation: Kd means the free concentration of one partner at which half of the binding sites on the other are occupied at equilibrium, for simple one-to-one binding.

For the origin of these results see article PMC11597096, “Unite and Conquer: Association of Two G-Quadruplex Aptamers Provides Antiproliferative and Antimigration Activity for Cells from High-Grade Glioma Patients”.
